From paper PMC5507773 come the findings set out here.

The assay has as its target LIMD1 (UniProt Q9UGP4). Description: co-IP of Xpr-LIMD1 with EYFP-AGO2. To be noted: reference: wild type; sites S387.

For the substance AGO2 (from UniProt Q9UKV8) S387A, the “binding against the reference” value is “weaker”.
